Source: patent US20240067725A1

Molecular target: full-length human LAG-3 expressed on cells (human) (UniProt P18627)
Test: cell-based or functional assay

Chain of full-length human LAG-3 expressed on cells (human) (P18627 23-525 limits assumed): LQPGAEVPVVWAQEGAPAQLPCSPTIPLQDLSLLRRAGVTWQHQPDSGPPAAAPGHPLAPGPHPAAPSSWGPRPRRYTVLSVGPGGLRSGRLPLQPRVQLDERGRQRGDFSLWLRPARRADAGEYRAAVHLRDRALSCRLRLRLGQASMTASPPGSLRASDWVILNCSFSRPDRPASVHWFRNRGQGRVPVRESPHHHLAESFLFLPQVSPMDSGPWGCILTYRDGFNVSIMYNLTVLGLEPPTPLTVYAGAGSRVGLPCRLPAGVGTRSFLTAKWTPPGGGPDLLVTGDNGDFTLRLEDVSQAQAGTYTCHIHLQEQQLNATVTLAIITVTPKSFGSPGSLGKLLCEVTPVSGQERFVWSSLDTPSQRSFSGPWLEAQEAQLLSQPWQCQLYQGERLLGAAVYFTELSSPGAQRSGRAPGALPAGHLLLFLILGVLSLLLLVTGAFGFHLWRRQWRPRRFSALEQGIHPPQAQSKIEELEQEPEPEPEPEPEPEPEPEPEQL

B1: BMK7 (antibody, from another filing, V domains shown)
VH: QVQLVESGGGVVQPGRSLRLSCVASGFTFSSYGMHWVRQAPGKGLEWVAIIWYDGSNKYYADSVKGRFTISRDNSKNTQYLQMNSLRAEDTAVYYCASVATSGDFDYYGMDVWGQGTTVTVSS
VL: EIVLTQSPATLSLSPGERTTLSCRASQRISTYLAWYQQKPGQAPRLLIYDASKRATGIPARFSGSGSGTGFTLTISSLEPEDFAVYYCQQRSNWPLTFGGGTKVEIK
EC50 (nM), IL-2 luciferase reporter gene assay: 2.65 nM
